Experimental data published in US20110250613A1, “Arrayed Multiple Ubiquitin Binding Domains as Linkage-specific Polyubiquitin Affinity Reagents” (THE JOHNS HOPKINS UNIVERSITY, priority 2009, published 2011).
Numbering of substitutions follows the chain as printed. Numbers in names are those of the source. One block for each molecule: values may come before it.

Columns and labels:
K63-Ub2 [1] = target: T1, K63-Ub2 (Homo sapiens, UniProt P0CG47, K63R); assay: Fluorescence anisotropy binding of fluorescent tUIM peptides to K63-Ub2; conditions: for Kd: fluorescence anisotropy, single-site fit, 25° C., pH 7.4
T1 construct: Ub and K48- and K63-linked diUb and tetraUb were made as described; made in house
Text: (§1) Fluorescent Labeling. Rap80 tUIM peptides were fluorescently-labeled on the sulfhydryl group of C121 (see FIG. 1). For longer Rap80 constructs, all cysteines except C121 were mutated to serine for site-specific labeling. Ataxin-3 and Vps27 UIM peptides were labeled on a single cysteine introduced at the C-terminus. Fluorescein-5-maleimide (Pierce) was coupled to cysteines following the manufacturer's instructions. After desalting through Sephadex G-25 resin, fluorescein-labeled tUIM peptides were separated from unlabeled peptides by anion-exchange chromatography (MonoQ column, GE Biosciences) by elution with a NaCl gradient in 50 mM Tris buffer, pH 7.9. The labeled peptides were essentially 100% pure by SDS-PAGE and Coomassie blue staining, and MALDI-TOF mass spectrometry confirmed the addition of a single fluorescein moiety. Fluorescence Anisotropy Binding Assays. Fluorescence anisotropy measurements were made using a Fluoromax 4 fluorometer in L format, thermostatted at 25° C. Excitation and emission monochromators were set at 492 nm and 520 nm, respectively. Slit widths were 3 nm for diUb-binding assays ([…]) or 6 nm for tetraUb-binding assays ([…]). Anisotropies were calculated by the instrument software, and the overall intensity of the fluorescence signal was monitored at each point with the polarizers oriented at the magic angle. All measurements were made in fluorescence buffer (25 mM Na phosphate [pH 7.4], 150 mM NaCl, 5 mM β-mercaptoethanol, 1 mM EDTA, and either 0.005% surfactant P20 (BIACORE) or 0.05% Brij35). Concentrations of the fluorescent proteins were calculated using the fluorescein extinction coefficient at 494 nm, 68000 M^-1 cm^-1. (poly)Ub concentrations were assessed by absorbance at 280 nm using the extinction coefficient 0.16 (mg/ml)^-1 cm^-1 ([…] and Raasi, 2005). Fluorescence anisotropy data were fit with a single-site binding model as described (Wilkinson, 2004). The equilibrium constants for wild-type Vps27 peptide binding to K63 and K48 Ub4 were determined by competition with the fluorescent Vps27 7aa linker peptide as described (Wilkinson, 2004).

K48-Ub2 = target: T2, K48-Ub2 (Homo sapiens, UniProt P0CG47, K48R); assay: Fluorescence anisotropy binding of fluorescent tUIM peptides to K48-Ub2; conditions: single-site fit, 25° C., pH 7.4
T2 construct: Ub and K48- and K63-linked diUb and tetraUb were made as described; made in house
Protocol: Fluorescence Anisotropy Binding Assays. Fluorescence anisotropy measurements were made using a Fluoromax 4 fluorometer in L format, thermostatted at 25° C. Excitation and emission monochromators were set at 492 nm and 520 nm, respectively. Slit widths were 3 nm for diUb-binding assays (1 mM fluorophore) or 6 nm for tetraUb-binding assays (0.1 mM fluorophore). Anisotropies were calculated by the instrument software, and the overall intensity of the fluorescence signal was monitored at each point with the polarizers oriented at the magic angle. All measurements were made in fluorescence buffer (25 mM Na phosphate [pH 7.4], 150 mM NaCl, 5 mM β-mercaptoethanol, 1 mM EDTA, and either 0.005% surfactant P20 (BIACORE) or 0.05% Brij35). Concentrations of the fluorescent proteins were calculated using the fluorescein extinction coefficient at 494 nm, 68000 M^-1 cm^-1. (poly)Ub concentrations were assessed by absorbance at 280 nm using the extinction coefficient 0.16 (mg/ml)^-1 cm^-1 ([…] and Raasi, 2005). Fluorescence anisotropy data were fit with a single-site binding model as described (Wilkinson, 2004).

K63-Ub4 [2] = assay: Fluorescence anisotropy binding of fluorescent tUIM peptides to K63-Ub4
Text: as §1

[3] = CD measurements of helical content of tUIM peptides; assay type: physicochemical; conditions: whole-spectrum interpretation of CD; peptide without vector-derived residues
Protocol: Measurements of 3 samples were collected and are shown in FIG. 2D: (1) 153 μM Rap80 tUIM alone, (2) 153 μM K63-Ub2 alone, and (3) a mixture of 153 μM Rap80 tUIM with 153 μM K63-Ub2. The contribution of Rap80 tUIM to spectrum (3) was sought, so that the helical content of the bound tUIM could be estimated. […] Therefore, the difference between spectrum (3) and spectrum (2) will give the contribution from Rap80 tUIM to the total CD spectrum of the Rap80-K63-Ub2 mixture. (A) The spectrum of unbound Rap80 [spectrum (1)] is shown here as triangles. The contribution of Rap80 to spectrum (3) was calculated as (3)−(2), and is shown here as squares. Because the mixture of Rap80 with K63-Ub2 is not at saturating concentrations, bound and unbound Rap80 are both present in the solution. The observed helical fraction (Hmix) for this complex mixture can be described by:
Where Fbound and Funbound are the fractions of the bound and unbound forms of Rap80 present in the mixture, respectively, and Hbound and Hunbound are the helical contents of the bound and unbound forms of Rap80, respectively. […] (B) Shown here is a summary of the secondary structure predictions from two methods and the corresponding Hbound values calculated as described above. […]
CD Measurements. […] Peptide concentrations were independently determined before each CD reading from absorbance measurements (fluorescein) of samples in the CD cuvette.

K48-Ub4 = assay: Fluorescence anisotropy binding of fluorescent tUIM peptides to K48-Ub4
Text: as §1

K63-Ub2 [4] = assay: Fluorescence anisotropy binding of fluorescent tUIM peptides to K63-Ub2
Text: as §1

K63-Ub4 [5] = target: T3, K63-Ub4 (Homo sapiens, UniProt P0CG47, K63R); assay: Fluorescence anisotropy binding of fluorescent tUIM peptides to K63-Ub4
T3 construct: Ub and K48- and K63-linked diUb and tetraUb were made as described; made in house
Text: as §1

[6] = fluorescence anisotropy Kd values
[7] = fluorescence anisotropy, single-site fit, 25° C., pH 7.4
[8] = determined by competition with the fluorescent Vps27 7aa linker peptide

B1: Rap80 2 x linker: Rap80 tUIM peptide with 14-residue linker REVNSQEREVNSQE (protein)
peptide: PSSHHHHHHSSGLVPRGSHMTEEEQFALALKMSEQEAREVNSQEREVNSQEEEEEELLRKAIAESLNSCRPS
Kd (K63-Ub2 [1]): 150 µM | Kd (K48-Ub2): 170 µM

B2: Rap80 (residues 1-233): N-terminal 233 residues of Rap80, fluorescently labeled on the same UIM cysteine (protein)
chain: MPRRKKKVKEVSESRNLEKKDVETTSSVSVKRKRRLEDAFIVISDSDGEEPKEENGLQKTKTKQSNRAKSLAKRKIAQMTEEEQFALALKMSEQEAREVNSQEEEEEELLRKAIAESLNSCRPSDASATRSRPLATGPSSQSHQEKTTDSGLTEGIWQLVPPSLFKGSHISQGNEAEEREEPWDHTEKTEEEPVSGSSGSWDQSSQPVFENVNVKSFDRSTGHSAEHTQSGKP
preference for K63-Ub4 over K48-Ub4 (K63-Ub4 [2]; solution fluorescence anisotropy): 7 fold

B6: unlabeled Rap80 tUIM peptide: unlabeled version of the fluorescent Rap80 tUIM peptide (protein)
peptide: PSSHHHHHHSSGLVPRGSHMTEEEQFALALKMSEQEAREVNSQEEEEEELLRKAIAESLNSCRPS
Ki (K63-Ub2 [1]; unlabeled peptide titrated against fluorescent Rap80 tUIM peptide at saturating K63-Ub2, read-out: Ki for the binding inhibition): 24 µM

B9: Rap80 (WT): His6-tagged human Rap80 tandem UIM peptide, linker REVNSQE, fluorescein-labeled on C121; sequence in Table 1 (protein)
peptide: PSSHHHHHHSSGLVPRGSHMTEEEQFALALKMSEQEAREVNSQEEEEEELLRKAIAESLNSC(fluorescein)RPS
α-helical content, K63-Ub2-bound form [3]: ~100% | α-helical content, unbound form [3]: 30%-35% | bound K48-Ub4 tighter than K48-Ub2 (K48-Ub4; [6]): more than 11 times | Kd (K63-Ub2 [1]): 21.6 ± 0.8 µM | preference for K63-Ub2 over monoUb (K63-Ub2 [4]; [6]): 24 fold | preference for K63-Ub2 over K48-Ub2 (K63-Ub2 [4]; from Kd values): 7 fold

B10: ataxin-3 Rap80 linker: ataxin-3 UIMs spliced together with the Rap80 linker REVNSQE (protein)
peptide: PSSHHHHHHSSGLVPRGSHMDEDEEDLQRALALSRQEIREVNSQEEDEEADLRRAIQLSMQGSSRNC
Kd (K48-Ub4; [7]): 7.8 µM | Kd (K63-Ub2 [1]): 60 µM | Kd (K48-Ub2): 160 µM | Kd (K63-Ub4 [5]; [7]): 11 µM

B11: ataxin-3 7A linker: ataxin-3 UIMs joined by a 7-alanine linker (protein)
peptide: B10 peptide with R39A, E40A, V41A, N42A, S43A, Q44A, E45A
Kd (K48-Ub4; [7]): 9.3 µM | Kd (K63-Ub2 [1]): 17 µM | Kd (K48-Ub2): 140 µM

B13: Rap80 6aa linker: Rap80 tUIM peptide with 6-residue linker REVAAE (protein)
peptide: PSSHHHHHHSSGLVPRGSHMTEEEQFALALKMSEQEAREVAAEEEEEELLRKAIAESLNSCRPS
Kd (K63-Ub2 [1]): 87 µM | Kd (K48-Ub2): 160 µM

B14: Vps27 (WT): yeast Vps27 tandem UIM peptide with unstructured 25-residue linker (protein)
peptide: PSSHHHHHHSSGLVPRGSHMDRDYSTPEDEEELIRKAIELSLKESRNSASSEPIVPVVESKNEVKRQEIEEEEDPDLKAAIQESLREAEEAKLRSERQKAC
Kd (K48-Ub4; [8]): 31 µM | Kd (K63-Ub2 [1]): 67 µM | Kd (K48-Ub2): 211 µM | binding of K63-Ub4 versus K48-Ub4 (K63-Ub4 [2]; fluorescence anisotropy): indistinguishably | Kd (K63-Ub4 [5]; [8]): 29 µM

The remaining molecules from weak to strong by Kd (K63-Ub2 [1]), led by results:

Kd (K63-Ub2 [1]): 17 µM | Kd (K48-Ub2): 230 µM
B7: Rap80 ARLEEKV: Rap80 tUIM peptide, linker ARLEEKV (protein)
peptide: B6 peptide with R38A, E39R, V40L, N41E, S42E, Q43K, E44V

Kd (K63-Ub2 [1]): 16 µM | Kd (K48-Ub2): 170 ± 5 µM
B4: Rap80 S101E: Rap80 tUIM peptide, linker REVNEQE (protein)
peptide: B6 peptide with S42E

Kd (K63-Ub2 [1]): 11 µM | Kd (K48-Ub2): 152 ± 6 µM
B8: Rap80 S101A: Rap80 tUIM peptide, linker REVNAQE (protein)
peptide: B6 peptide with S42A

Kd (K63-Ub2 [1]): 10 µM | Kd (K48-Ub2): 129 ± 5 µM
B5: Rap80 DLKAAIQ: Rap80 tUIM peptide, linker DLKAAIQ (protein)
peptide: B6 peptide with R38D, E39L, V40K, N41A, S42A, Q43I, E44Q

binds K63-Ub2 more tightly than Rap80 with the wild-type linker (K63-Ub2 [1]; Table 2 Kd values): 6 fold | Kd (K63-Ub2 [1]): 3.6 µM | Kd (K48-Ub2): 160 µM
B3: Rap80 7A linker: Rap80 UIMs linked by 7 alanine residues (protein)
peptide: B6 peptide with R38A, E39A, V40A, N41A, S42A, Q43A, E44A

Kd (K48-Ub4; [7]): 6.5 µM | Kd (K63-Ub2 [1]): 2.2 µM | Kd (K48-Ub2): 98 µM | Kd (K63-Ub4 [5]; [7]): 0.62 µM
B12: Vps27 7aa linker: Vps27 UIMs connected with 7-residue linker RAEEKVK (protein)
peptide: PSSHHHHHHSSGLVPRGSHMEEEEDPDLKAAIQESLREARAEEKVKEDEEELIRKAIELSLKESRNCA
